Test results from patent publication US7858577B2, “Use of the long pentraxin PTX3 for the treatment of diseases caused by an altered activation of the growth factor FGF-2” (Sigma-Tau Industrie Farmaceutiche Riunite S.p.A., priority 2000, dated 2010).

How the values were obtained:
FGF-2 [1] = target: T1, FGF-2 (Homo sapiens, UniProt P09038); assay: Capacity of biotinylated PTX3 to bind plastic immobilised FGF-2; format: binding; conditions: ELISA, streptavidin HRP, 405 nm
T1 construct: made in house
T1 sequence (P09038 134-288): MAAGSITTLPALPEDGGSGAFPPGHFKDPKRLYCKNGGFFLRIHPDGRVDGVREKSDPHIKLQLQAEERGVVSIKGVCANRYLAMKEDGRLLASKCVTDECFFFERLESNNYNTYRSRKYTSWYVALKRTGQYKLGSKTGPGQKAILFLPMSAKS
Experimental: 100 μl of NaHCO3 pH 9.6 containing 500 ng of FGF-2 or of the complement component C1q were incubated 18 h at 4° C. in 96 wells plastic plates. At the end of incubation wells were washed 3 times with PBS and subsequently incubated 2 h at room temperature with 200 μl of PBS containing 1 mg/ml of Bovine Serum Albumin (BSA). At the end of incubation wells were washed again 3 times with PBS and incubated with 30 ng/ml of ^125I-FGF-2 in presence of increasing amounts of biotinylated PTX3 in 100 μl of PBS (2 h at room temperature). Alternatively wells were adsorbed with increasing doses of FGF-2 or C1q and incubated with 100 ng/ml of biotinylated PTX3 in 100 μl of PBS. After this incubation wells were washed 3 times with PBS and incubated 1 h at room temperature with 100 μl of streptavidin HRP conjugate ( 1/2000). Reaction was developed by adding the chromogen microwell peroxidase substrate system ABTS (Kirkegaard & Perry Laboratories). Plates were read in an automatic ELISA reader at 405 nm.

[2] = target: T2, interaction between 125I-FGF-2 and plastic immobilised PTX3 (Homo sapiens, UniProt P09038+P26022); assay: 125I-FGF-2 binding to plastic immobilised PTX3 in the presence of an excess of competitor; conditions: excess of competitor: FGF-2 or Cytocrome C 100 nM, soluble PTX3 300 nM
T2 construct: made in house
T2 sequence (P09038 134-288): as above
T2 sequence (P26022 18-381): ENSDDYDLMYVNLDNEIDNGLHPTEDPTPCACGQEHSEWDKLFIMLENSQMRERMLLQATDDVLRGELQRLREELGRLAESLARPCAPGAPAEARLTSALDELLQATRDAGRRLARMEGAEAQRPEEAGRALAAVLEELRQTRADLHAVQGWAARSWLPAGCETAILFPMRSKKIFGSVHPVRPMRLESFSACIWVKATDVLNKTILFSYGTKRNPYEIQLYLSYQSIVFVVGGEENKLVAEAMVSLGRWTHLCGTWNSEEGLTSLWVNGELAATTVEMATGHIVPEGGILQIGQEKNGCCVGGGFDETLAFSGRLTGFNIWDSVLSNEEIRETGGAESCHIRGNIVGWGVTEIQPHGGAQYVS
Experimental: (§1) 96 wells plates were coated at 4° C. with 100 μl of NaHCO3 pH 9.6 containing PTX3 or C reactive protein (200 nM) or alternatively 2 μg/ml of the following proteins used as negative control: bovine serum albumin, fibronectin, gelatine or laminin. After incubation, wells were washed 3 times with PBS and blocked 2 h at room temperature with 200 μl of 1 mg/ml of BSA in PBS. At the end of incubation wells were washed 3 times with PBS and subsequently incubated with 30 ng of ^125I-FGF-2 for 2 h at room temperature. Wells were subsequently washed 3 times with PBS and bound ^125I-FGF-2 was recovered by washing each well twice with 200 μl of 2% SDS in water. Levels of ^125I-FGF-2 were measured in a gamma counter.
In a second set of experiments the binding of ^125I-FGF-2 to plastic immobilised PTX3 has been tested in the presence of an excess of both native or heat denatured cold FGF-2 (100 nM), in the presence of similar Cytocrome C concentrations or in the presence of an excess of soluble PTX3 (300 nM).

MAE3F2T cells = assay: Effect on FGF-2 dependent autocrine proliferation of MAE3F2T cells; format: cell-based, murine; conditions: 72 h in 0.4% FCS; PTX3 70 nM, suramin 50 μg/ml, anti FGF-2 antibodies; cell counting
Experimental: In this experiment we have investigated the effect of PTX3 on the proliferation of the murine aortic endothelial cell line MAE3F2T stably transfected with an expression vector coding for FGF-2 (Gualandris et al. 1996, Cell Growth Diff. 7:147-60). These cells can proliferate in response to a autocrine loop of stimulation induced by endogenous FGF-2 (Gualandris et al. 1996, Cell Growth Diff. 7:14760). MAE3F2T cells were seeded at 10,000/cm^2 in 48-well plates in Dulbecco medium (DMEM) added with 10% FCS. After 24 h at 37° C., adherent cells were washed twice with DMEM without FCS and incubated for 72 at 37° C. in DMEM containing 0.4% FCS in the presence or not of PTX3 (70 nM), anti FGF-2 specific antibodies or suramin (50 μg/ml). Suramin is known for its capacity to sequestrate extracellular FGF-2 and inhibits its biological activities (Rusnati et al., 1996, Mol. Biol. Cell. 7:369-381). At the end of incubation cells were trypsinized and counted in a Burker chamber.

FGF-2 [3] = target: T1, FGF-2; assay: 125I-FGF-2 binding to plastic immobilised proteins; conditions: wells coated with 200 nM PTX3 or CRP or 2 μg/ml control proteins, 30 ng 125I-FGF-2, 2 h room temperature
Experimental: as §1

Compound: biotinylated PTX3: PTX3 labelled with biotin for the ELISA binding test
- binding of biotinylated PTX3 to plastic immobilised FGF-2 (FGF-2 [1]): FGF-2 immobilised on plastic wells is able to bind biotinylated PTX3

Compound: heat-inactivated FGF-2: heat denatured unlabelled FGF-2 used as competitor
- inhibition of the interaction between 125I-FGF-2 and plastic immobilised PTX3 [2]: not able to bind PTX3

Compound: Cc1ccc(C(=O)Nc2ccc(S(=O)(=O)O)c3cc(S(=O)(=O)O)cc(S(=O)(=O)O)c23)cc1NC(=O)c1cccc(NC(=O)Nc2cccc(C(=O)Nc3cc(C(=O)Nc4ccc(S(=O)(=O)O)c5cc(S(=O)(=O)O)cc(S(=O)(=O)O)c45)ccc3C)c2)c1 [suramin, reference compound]
- inhibition of FGF-2 dependent proliferation of MAE3F2T cells (MAE3F2T cells): in a manner similar to that exerted by anti FGF-2 antibodies and suramin

Compound: cold FGF-2: human recombinant growth factor FGF-2, unlabelled, used as competitor
- inhibition of the interaction between 125I-FGF-2 and plastic immobilised PTX3 [2]: inhibited the interaction

Compound: CRP: short pentraxin homologous to PTX3, used as comparison protein
- binding of 125I-FGF-2 to plastic immobilised protein (FGF-2 [3]): reacts poorly
- binding of 125I-FGF-2 to plastic immobilised protein (FGF-2 [3]; listed as C-reactive protein): does not bind FGF-2
